Data on one molecule can be found in patent WO2010064456A1.

In the experiment the target is T1, rhNR10 (human) (UniProt Q8NI17).
T1 sequence (looked up): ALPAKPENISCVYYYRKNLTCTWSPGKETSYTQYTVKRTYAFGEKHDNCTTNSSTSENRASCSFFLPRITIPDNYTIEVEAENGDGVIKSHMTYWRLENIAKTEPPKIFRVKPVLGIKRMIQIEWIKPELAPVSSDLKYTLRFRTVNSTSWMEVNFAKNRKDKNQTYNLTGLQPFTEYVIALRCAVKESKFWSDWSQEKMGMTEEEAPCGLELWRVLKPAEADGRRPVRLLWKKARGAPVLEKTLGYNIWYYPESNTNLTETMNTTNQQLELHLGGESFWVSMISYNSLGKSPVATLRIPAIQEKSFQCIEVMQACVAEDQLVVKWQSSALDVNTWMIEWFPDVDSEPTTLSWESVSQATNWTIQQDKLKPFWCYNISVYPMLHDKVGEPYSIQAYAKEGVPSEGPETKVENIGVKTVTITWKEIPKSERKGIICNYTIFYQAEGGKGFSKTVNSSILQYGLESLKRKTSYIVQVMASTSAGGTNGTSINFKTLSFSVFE
Put plainly: SPR (Biacore T100), antibody captured on Protein A, rhNR10 as analyte; reference H0L0 (H0-M58/L0). On the technique in general: SPR reads the build-up and loss of mass on a sensor chip optically.

B1: H0L12 (H chain H0-M58, L chain L12) (antibody, V domains shown)
VH: QVQLVQSGAEVKKPGASVKVSCKASGYTFTGYIMNWVRQAPGQGLEWMGLINPYNGGTSYNQKFKGRVTITADESTSTAYMELSSLRSEDTAVYYCARDGYDDGPYTMDYWGQGTLVTVSS
VL: DIQMTQSPSSLSASVGDRVTITCQTSEDIYSFVAWYQQKPGKAPKLLIYNAQTEAQGVPSRFSGSGSGTDFTLTISSLQPEDFATYYCQHHYDSPLTFGGGTKVEIKR
In turn, B1 had a fold affinity against H0L0 of 2 fold.
